The nature of the data set: yeast display, Sf9 membrane polyspecificity reagent, FACS + sequencing; frameworks hold sequencing errors. The gist of the method:
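Nanobodies from a synthetic yeast display library (Saccharomyces cerevisiae BJ5465), induced 36–48 hours with galactose, were stained 1 hour at 4 °C with 10% biotinylated, detergent-solubilized Sf9 membrane reagent, enriched on streptavidin microbeads, then FACS-sorted. Anti-HA (expression) and streptavidin (reagent binding) fluorescence set low and high (top ~1%) gates. Polyreactivity labels come from the gate of origin. Genes were colony-PCR amplified, MiSeq 2 × 250 sequenced and filtered by CDR length.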
“QVQLVESGGGLVQAGGSLRLSCAASGFTFPTYAMGWYRPAPGKERELVAAITRGGSTYYADSVKGRFTISRDNAKNTVYLQMNSLKPEDTAVYYCAGDDPWYEEDYWGQGTQVTVSS”: the “polyreactivity (PSR sort gate)” value is on record as “low polyreactivity”. With “QVQLVESGGGLVQAGGSLRLSCAASGFTFPVYAMGWYRQAPGKEREFVAAITKSGGGTYYADSVKGRFTISRDNAKNTVYLQMNSLKPVDTAVYYCAKASRRFLTLGYDYWGQGTQVTVSS”, the “polyreactivity (PSR sort gate)” value is “high polyreactivity”.

Regarding “QVQLVESGGGLVQAGGSLRLSCAASGFTFPVYAMGWYRQAPGKERELVAAISRRGGRTYYADSVKGRFTISRDNAKNTVYLQMNSLKPEDTAVYYCAAQSVPYAYRLASYDYWGQGTQVTVSS”, the “polyreactivity (PSR sort gate)” value was “high polyreactivity”. As to “QVQLVESGGGLVQAGGSLRLSCAASGFTFPVYAMGWYRQAPGKERELVAAITYNGGSTYDADSVKGRFTISRDNAKHTVYFQMNSLKPEDTAVSYCAAEVFLRSLGYWYDYWGQGTQVTVSS”, the “polyreactivity (PSR sort gate)” value is reported as “high polyreactivity”.

As to “QVQLVESGGGLVQAGGSLRLSCAASGFTFPWYAMGWYIQAPGKERELVASISYRGDSTYYADSVKGRFTISRDNAKNTVYLQMNSLKPEDTAVYYCNKRLASYYLPGFDYWGQGTQVTVSS”, the “polyreactivity (PSR sort gate)” value is recorded as “low polyreactivity”.

Consider “QVQLVESGGGLVQAGGSLRLSCAASGFTFPWYAMGWYRQAPGKERELVAAITSGGGSTYYADSVKGRFTISRYNAKNTVYLQMNSLKPEDTAVYYCATSYTKQGFRYYYWGQGTQVTVSS”, for which the “polyreactivity (PSR sort gate)” value is recorded as “high polyreactivity”. Turning to “QVQLVESGGGLVQAGGSLRLSCAASGFTFPYNDMGWYIQARGKEREFVAAISRSGTRTYYADSVKGRFTISRDNAKHTVYLQMNSLKPEDTAVYYCNARAAGYARLGPGFDYWGQGTQVTVSS”, the “polyreactivity (PSR sort gate)” value was “high polyreactivity”. As for “QVQLVESGGGLVQAGGSLRLSCAASGFTFPYYAMAWYRQAPGKEREVVAAISFSGGRTYYADSVMGRFTISRDNAKYTVYLQMNSLKPEDTAVYYCASYDYRNTGGGGYYYWGQGTQVTVSS”, the “polyreactivity (PSR sort gate)” value is “high polyreactivity”. Regarding “QVQLVESGGGLVQAGGSLRLSCAASGFTFPYYAMGWYRQAPGKEMELVAVISGSGTRTNYADSVKGRFTISRDNAKNTVYLQMNSLKPEDTEVYYCAAYYTYLHYIYDYWGQGTQVTVSS”, the “polyreactivity (PSR sort gate)” value is on record as “high polyreactivity”. With “QVQLVESGGGLVQAGGSLRLSCAASGFTFPYYAMGWYRQAPGKERDLVARISSGGSTNYADSVKGRFTISRDNAKNTVYLQMNSLKPEDTAVYYCNKVRTVTTYEYWGQGTQVTVSS”, the “polyreactivity (PSR sort gate)” value is recorded as “high polyreactivity”. Take “QVQLVESGGGLVQAGGSLRLSCAASGFTFPYYAMGWYRQAPGKERELVAAISQGGASTRYADSVKGRFTISRDNAKNTVYLQMNSLKPEDTAVYYCAAKSRHFWMDYWGQGTQVTVSS”: the “polyreactivity (PSR sort gate)” value is “high polyreactivity”. Take “QVQLVESGGGLVQAGGSLRLSCAASGFTFPYYAMGWYRQAPGKERELVAAISRSGTSTNYADSVKGRFTISRDNAKNTVYLQMNSLKPEDTAVYYCATARRQGKVIQYYYWGQGTQVTVSS”: the “polyreactivity (PSR sort gate)” value is reported as “high polyreactivity”. As for “QVQLVESGGGLVQAGGSLRLSCAASGFTFPYYAMGWYRQAPGKERELVAAISSGGRTNYADSVKGRFTISRDNAKNTVYLQMNSLKPEDTAVYYCATRSYVFAWEFNYWGQGTQVTVSS”, the “polyreactivity (PSR sort gate)” value is listed as “high polyreactivity”. In the case of “QVQLVESGGGLVQAGGSLRLSCAASGFTFPYYAMGWYRQAPGKERELVAAISTRGGSTYYADSVKGRFTISRDNAKNTVYLQMKSLKPEDTAVYYCAADPGRVTRVGVRYYYWGQGTQVTVSS”, the “polyreactivity (PSR sort gate)” value is listed as “high polyreactivity”. “QVQLVESGGGLVQAGGSLRLSCAASGFTFPYYAMGWYRQAPGKERELVAAISWDGGITYYADSVKGRFTISRDNAKNTVYLQMNSLKPEDTAVYYCNVEGWYDYDYWGQGTQVTVSS”: the “polyreactivity (PSR sort gate)” value is on record as “high polyreactivity”. For the sequence “QVQLVESGGGLVQAGGSLRLSCAASGFTFPYYAMGWYRQAPGKERELVADITSGGGTNYADSVKGRFTISRDNAKNTVFLQMNSLKPEDTAVYYCAADAYHQGMDYWGQGTQVTVSS”, the “polyreactivity (PSR sort gate)” value was “low polyreactivity”.

Take “QVQLVESGGGLVQAGGSLRLSCAASGFTFQDYAMGWYRQAPGKERELVAAISTSDGNTYYADSVKGRFTISRDNAKNTVYLQMNSLKPEDTAVYYCAAQRNYGWVKFYYWGQGTQVTVSS”: the “polyreactivity (PSR sort gate)” value is given as “high polyreactivity”. Consider “QVQLVESGGGLVQAGGSLRLSCAASGFTFQWYAMGWYRQAPGKERELVAGITSGASTNYADSVKGRFTISRDNAKNNVYLQMNSLKPEDTAVYYCAAGYKSRYYRNSGYYWGQGTQVTVSS”, for which the “polyreactivity (PSR sort gate)” value was “high polyreactivity”. Then “QVQLVESGGGLVQAGGSLRLSCAASGFTFQWYAMGWYRQAPGKERELVAGITSGASTNYADSVKGRFTISRDNAKNTVYLQMNSLKPEDTAVYYCAARRWREGARYSYWGQGTQVTVSS”, with “high polyreactivity”. Under “QVQLVESGGGLVQAGGSLRLSCAASGFTFQYYAMGCYRPAPGKERELVATISSTDNTYYADSVKGRFTISRDNAKNTVYLQMFSLKPEDTAVYYCNAAYVYGYQARGGYWGQGTQVTVSS” stands “high polyreactivity”; under “QVQLVESGGGLVQAGGSLRLSCAASGFTFQYYAMGWYRQAPGKERELVAAITWSGTSTYYADSVKGRFTISRDNAKNTVYLQMNSLKPEDTAVYYCNKYSPYITYDYDYWGQGTQVTVSS”, “high polyreactivity”; under “QVQLVESGGGLVQAGGSLRLSCAASGFTFRAYAMGWYRQAPGKERELVATITRSGGSTFYADSVKGRFTISRDNAKNTVYLQMNSLKPEDTAVYYCAAVYRFAFRYAWYKYDYWGQGTQVTVSS”, “high polyreactivity”. Then “QVQLVESGGGLVQAGGSLRLSCAASGFTFRDNAMGRYRQAPGKERELVAAITWDGGSTYYADSVKGRFTISRDNEKNTVYLQMNSLKPEDTAVYYCAASRYYPRYFKRYYYWGQGTQVTVSS”, with “high polyreactivity”; and “QVQLVESGGGLVQAGGSLRLSCAASGFTFRDYAMGWYRQAPGKERELVAAISRSGDSTYYADSVKGRFTISRDNAKNTVYLQMNSLKPEDTAVYDYAAKRRYTTYDYWGQGTQVTVSS”, with “high polyreactivity”; and “QVQLVESGGGLVQAGGSLRLSCAASGFTFRGNAMGWYRQAPGKERELVAAITSSDDSTYYADSVKGRFTISRDNAKNTVYLQMNSLKPEDTAVYYCAAVANGYWTYEYWGQGTQVTVSS”, with “low polyreactivity”. Consider “QVQLVESGGGLVQAGGSLRLSCAASGFTFRGYAMGWYRPAPGKERELVAAITVRGGRTYYADSVKGRFTISRDNAKNTVYLQMNSLKPEETALYYCAKPVDRYTYSLYQQYDYWGQGTQVTVSS”, for which the “polyreactivity (PSR sort gate)” value was “high polyreactivity”. Turning to “QVQLVESGGGLVQAGGSLRLSCAASGFTFRGYAMGWYRQAPGKERELVAAITAGGGSTSYADSVKGRFTISRDNAKNTVYLQMNSLKPEDTGVYYCARRPGTRTYLSKWGSKYDYWGQGTQVTVSS”, the “polyreactivity (PSR sort gate)” value was “high polyreactivity”. On to “QVQLVESGGGLVQAGGSLRLSCAASGFTFRGYVMGWYRQAPGKERELVAAITNIGTSTYYADSVKGRFTISRDNAKNTVYLQMNSLNPEDTAVYYCAARLRSIFYDWGLGTQVTVSS”, for which the “polyreactivity (PSR sort gate)” value was “low polyreactivity”. Take “QVQLVESGGGLVQAGGSLRLSCAASGFTFRHYAMGWYRQAPGKARQLVAAITKSGDSTYYADSVKWRFTISRDIAKKTVYLQMNSLNPEDTEVYYCATPYTLSRADNYWGQGTQVTVSS”: the “polyreactivity (PSR sort gate)” value was “low polyreactivity”.

As for “QVQLVESGGGLVQAGGSLRLSCAASGFTFRIYAMGWYRQAPGKERELVAAISWSGGSTYYADSVKGRFTISRDNAKNTVYLQMNSLKPEDTAVYYCATDSHRSQRHYAYDGDYWGQGTQVTVSS”, the “polyreactivity (PSR sort gate)” value is reported as “high polyreactivity”.

Turning to “QVQLVESGGGLVQAGGSLRLSCAASGFTFRKYAMGWYRPAPGKERELVAAITANGGRTYYADSVKGRFTISRDNAKNTVYLQMNSLKPEDTAVYYCARDWGKSEYDYWGQGTQVTVSS”, the “polyreactivity (PSR sort gate)” value is given as “high polyreactivity”. For the sequence “QVQLVESGGGLVQAGGSLRLSCAASGFTFRKYAMGWYRQAPGKERELVAVINIVGSTYYADSVKGRFTISRDNAKNTVYLQMNSRKPEDTAVYYCAADWSYLLKYYWYGGFNYWGQGTQVTVSS”, the “polyreactivity (PSR sort gate)” value is “high polyreactivity”.

Take “QVQLVESGGGLVQAGGSLRLSCAASGFTFRLYAMGWYRQAPGIERELVAAISSGGRTYYADSVKGRFTISRDNAKNTVYFQMNSLKPEDTAVNYCAVYPRDAERYGYWGQGSQVTVSS”: the “polyreactivity (PSR sort gate)” value is “high polyreactivity”.

As to “QVQLVESGGGLVQAGGSLRLSCAASGFTFRLYAMGWYRQAPGKERELVAAISSRGTTTYYADSVKGRFTNSRDNAKKTGYLQMNSLKPEDTAVYNCNKEYTSYGYDLEYDYWGQGTQVTVSS”, the “polyreactivity (PSR sort gate)” value is on record as “low polyreactivity”. Then “QVQLVESGGGLVQAGGSLRLSCAASGFTFRNNAMGWYRQAPGKERELVAAISKRGSSTYYADSVKGRFTISRDNAKNTVYLQMNSLKPEDTAVYYCAASWLGASGIRYDYWGQGTQVTVSS”, with “high polyreactivity”. Take “QVQLVESGGGLVQAGGSLRLSCAASGFTFRQYAMGGYGQAPGKEREWVASIRNGGSTNYADSVKGRFTISRDNAKNTDYFQMITLKPEDTALYYCSQRHSRTNMYYWGQGTQVTVSS”: the “polyreactivity (PSR sort gate)” value is reported as “high polyreactivity”. Then “QVQLVESGGGLVQAGGSLRLSCAASGFTFRQYAMGWYRQAPGKERELVAAISRSGSRTYYADSVKGRFTISRDNAKNTVYLQMNSLKPEDTAVYYCNAVFSTFTGEYYWGQGSQVTVSS”, with “high polyreactivity”; and “QVQLVESGGGLVQAGGSLRLSCAASGFTFRRNGRGWYRPAPGKERELVAAIRGSDGSTYYADSVKGRFTISRDTAKNTVYLLMNSLKPADTAVYYCIVVGKGLYRKMGYWGQGTQVTVSS”, with “high polyreactivity”. Under “QVQLVESGGGLVQAGGSLRLSCAASGFTFRRYAKGWYRQATGKEREFVAAISIRGGRTNYADSVKGRFTISRDNAKNTVYLQMNSLKPEDTAVYYCAADGVYALDVESDYWGQGTQVTVSS” stands “high polyreactivity”; under “QVQLVESGGGLVQAGGSLRLSCAASGFTFRRYAMGWYRQAPGKERELVAAISRRGVTTYYADSVKGRFTISRDNAKNTVYLQMISLKPEDTAVYYCAADHNPSIGDDSWGQGTQVTVSS”, “high polyreactivity”. With “QVQLVESGGGLVQAGGSLRLSCAASGFTFRRYAMGWYRQAPGKERELVAAISYSGGSTNYADSVKGRFTISRDNAKNTVYLQMNSLKPEDTAVYYCATTSRAWGRGYDYWGQGTQVTVSS”, the “polyreactivity (PSR sort gate)” value is “low polyreactivity”.

The values above are taken from the nanobody polyreactivity screen of Harvey et al. (2022).
